B1: SEQ ID NO: 195 (peptide)
peptide: Ac-L[NMeQ]TLR[S5]IQR[S5][Phe(4-Cl)][2Nal]-NH2
modifications: staple 6-10; not fully specified; printed as L(N-methylQ)TLRXIQRX(4-Cl-Ph)(2-Nal), X/X stapled, (S) α-methyl, N-terminal Ac, C-terminal NH2
B2: SEQ ID NO: 129 (peptide)
peptide: Ac-L[NMeQ]TLR[S5][Cba]QR[S5][Cba][2Nal]-NH2
modifications: staple 6-10; not fully specified; printed as L(N-methylQ)TLRX(CBA)QRX(CBA)(2-Nal)
B3: SEQ ID NO: 114 (peptide)
peptide: [Cba][dNMeQ]TLR[S5]IQR[S5][Cba][2Nal]
modifications: staple 6-10; not fully specified (N-terminus, C-terminus); printed as (CBA)(N-methylQ)TLRXIQRX(CBA)(2-Nal), X/X stapled, (S) α-methyl, N-terminal Ac, C-terminal NH2
B4: SEQ ID NO: 123 (peptide)
peptide: Ac-L[NMeQ]T[Cha]R[S5]IQR[S5][Cba][2Nal]-NH2
modifications: staple 6-10; not fully specified; printed as L(N-methylQ)T(Cha)RXIQRX(CBA)(2-Nal)
B5: SEQ ID NO: 172 (peptide)
peptide: Ac-LQTLR[S5]IQR[S5][αMeL][2Nal]-NH2
modifications: staple 6-10; not fully specified (residue 2); printed as L(N-methylQ)TLRXIQRX(α-methylL)(2-Nal); also: N-methylQ at 2: D or L (both stated)

Bridges are numbered along the chain shown (N, C = ends). Where no end group is shown, it is not given here. [ ]: non-standard residue; d: D form. Phe(4-Cl) = N[C@@H](Cc1ccc(Cl)cc1)C(=O)O; 2Nal = N[C@@H](Cc1ccc2ccccc2c1)C(=O)O; NMeQ = CN[C@@H](CCC(N)=O)C(=O)O; dNMeQ = CN[C@H](CCC(N)=O)C(=O)O; Cha = N[C@@H](CC1CCCCC1)C(=O)O; AllylGly = C=CC[C@H](N)C(=O)O; αMeL = CC(C)C[C@](C)(N)C(=O)O; Cba = N[C@@H](CC1CCC1)C(=O)O; S5 = C=CCCC[C@](C)(N)C(=O)O

This assay has as its target T1, β-catenin (UniProt P35222 1-781, limits assumed).
T1 construct: also called beta-catenin
T1 sequence (looked up): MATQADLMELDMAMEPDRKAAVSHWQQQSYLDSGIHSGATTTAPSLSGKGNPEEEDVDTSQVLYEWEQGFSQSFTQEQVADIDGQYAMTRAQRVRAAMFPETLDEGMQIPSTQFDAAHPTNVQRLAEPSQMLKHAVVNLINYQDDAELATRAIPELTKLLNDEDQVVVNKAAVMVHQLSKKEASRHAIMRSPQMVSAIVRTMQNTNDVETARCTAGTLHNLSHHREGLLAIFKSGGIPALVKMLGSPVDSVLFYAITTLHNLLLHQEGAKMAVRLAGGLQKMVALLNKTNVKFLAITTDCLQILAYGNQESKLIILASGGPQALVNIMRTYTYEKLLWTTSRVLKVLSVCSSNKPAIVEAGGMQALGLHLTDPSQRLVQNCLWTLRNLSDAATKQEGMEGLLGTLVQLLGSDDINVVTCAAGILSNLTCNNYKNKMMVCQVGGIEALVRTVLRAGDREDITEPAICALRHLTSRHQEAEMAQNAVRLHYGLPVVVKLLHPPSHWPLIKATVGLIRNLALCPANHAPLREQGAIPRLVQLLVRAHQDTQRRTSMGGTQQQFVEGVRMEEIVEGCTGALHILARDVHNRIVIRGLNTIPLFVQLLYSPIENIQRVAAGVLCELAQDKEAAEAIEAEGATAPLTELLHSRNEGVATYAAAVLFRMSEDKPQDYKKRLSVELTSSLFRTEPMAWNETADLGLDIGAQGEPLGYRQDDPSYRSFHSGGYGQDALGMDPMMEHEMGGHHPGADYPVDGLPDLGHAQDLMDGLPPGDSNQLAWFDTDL
Briefly: ALPHA Screen (BCL9/β-catenin).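 Further: bead proximity readout with the polypeptide linked to donor beads and β-catenin fixed on acceptor beads, their binding bringing the beads close enough to emit signal.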
Excerpt: In this assay, a polypeptide is conjugated to a donor bead and its target protein (i.e., β-catenin) is attached to an acceptor bead. When the two beads are in proximity due to the binding of the polypeptide to the target protein, a signal is generated and the binding affinity of the polypeptide can be quantitatively calculated. The assay may be conducted in the presence or absence of an unconjugated control polypeptide.
The IC50 is the point on the concentration scale where inhibition reaches its midpoint. A high value points to weaker potency in that assay. In turn, Ac-LQTLR[S5]IQK[S5]L[2Nal]-NH2 (staple 6-10) [SEQ ID NO: 101] came in with an IC50 of 10.6 µM. Ac-[dL]QTIR[S5]IQR[S5]L[2Nal]-NH2 (staple 6-10) [SEQ ID NO: 102] displayed an IC50 of 6.84 µM. Under B1 stands 13 µM; under B2, 2.06 µM; under Ac-LQTLR[S5]IQR[S5][AllylGly][2Nal]-NH2 (staple 6-10) [SEQ ID NO: 175], 9.71 µM. Consider B3, for which the IC50 came out at 4.9 µM. As for B4, the IC50 worked out at 3.62 µM. On to B5, for which 8 µM corresponded to half-maximal inhibition (IC50). Compared with the last molecule, the IC50 is about 2.2-fold higher. The molecule Ac-LQT[Cba]R[S5]IQR[S5][Cba][2Nal]-NH2 (staple 6-10) [SEQ ID NO: 115] displayed an IC50 of 4.53 µM. Compared with the last molecule, the IC50 is about 1.8-fold lower. With Ac-LQTLR[S5]IQR[S5][dL][2Nal]-NH2 (staple 6-10) [SEQ ID NO: 105], the midpoint of inhibition, the IC50, lay at 10.7 µM. This IC50 is about 2.4-fold higher than that of the molecule before.

As for Ac-[Cba]QTLR[S5]IQR[S5][Cba][2Nal]-NH2 (staple 6-10) [SEQ ID NO: 113], the IC50 was determined as 6.99 µM. Consider Ac-LQTLR[S5]IQH[S5][Cba][2Nal]-NH2 (staple 6-10) [SEQ ID NO: 112], for which the IC50 came out at 5.65 µM. For Ac-LQT[dL]R[S5]IQR[S5]L[2Nal]-NH2 (staple 6-10) [SEQ ID NO: 103] the value was 2.86 µM; for Ac-LETLR[S5]IQR[S5][Cba][2Nal]-NH2 (staple 6-10) [SEQ ID NO: 109], 0.913 µM.

As for {4‑biphenyl acetic acid}-L[NMeQ]TLR[S5]IQR[S5][Cba][2Nal]-NH2 (staple 6-10; not fully specified) [SEQ ID NO: 143], the IC50 was 6.66 µM.

For the origin of these results see patent US20200262867A1 (WNTRX PHARMACEUTICALS, published 2020).
